Here are results for one substance from article PMC5931990.

For the assay, the target named is Mouse CLIC6 CLIC domain (residues 363-597) (mouse) (UniProt Q8BHB9). Description: SEC; analytical gel filtration after 10 minutes with 0 to 2 mM H2O2; running buffer without reducing or oxidative agents. A general note: Size exclusion chromatography separates by hydrodynamic size, large species first.

Regarding “Mouse CLIC6 CLIC domain (residues 363-597) (from UniProt Q8BHB9 363-596) (domain or fragment)”, the stoichiometry N (in general, a count of units in the complex or per binding partner) amounted to 2.
